Data on twelve sequences can be found in the supplement of paper PMC9170038.

The data set deals with MS2 coat protein. The data set can be described thus: apparent KD of MS2 coat protein; designed switch direction (-1 OFF switch, 1 ON switch): -1; higher = weaker reporter binding. In outline: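 Designed RNA switches sharing common flanks were transcribed on Illumina chips by stalled E. coli RNA polymerase. They were titrated with SNAP-549-labelled MS2 coat protein, from 0.7 or 1.5 nM doubling to 3 µM, in Tris-HCl pH 7.5 buffer with KCl, MgCl2, BSA, DTT, tRNA and Tween-20. Titrations ran without input, with 200 uM small-molecule ligand, or with an oligonucleotide input. The apparent KD of each design is the median over its clusters, after curve-fitting of normalised cluster fluorescence.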

Where [1] appears, read: input ligand: microRNA oligo, concentration not stated.
Setting [2] is: Eterna round: R95, input ligand: microRNA oligo, concentration not stated.

As to “UGAUCUAGCGGAGGAUAUACAUGAGGAUCACCCAUGUAAUGGUGACGUGCGUACAUGUCACCUGUGUAGAAGGCCGCUAGAUCU [JL ENG2 3.57] (Eterna round: R96, puzzle: Exclusion NG 2)”, the “apparent KD of MS2 coat protein” value was determined as 11.3 nM (input ligand: FMN 200 uM), 15.6 nM under setting [1] and 16 nM (input ligand: none).
For the sequence “UGAUCUAGCGGAGGAUAUACAUGAGGAUCACCCAUGUAGACUCCAUGACCGUAGUCGUGGAGCGUGUAGAAGGCCGCUAGAUCU [JL ENG2 3.72] (Eterna round: R96, puzzle: Exclusion NG 2)”, the “apparent KD of MS2 coat protein” value is 19.2 nM (input ligand: FMN 200 uM), 10.3 nM under setting [1] and 12.2 nM (input ligand: none).
Regarding “UGAUCUAGCGGAGGAUAUACAUGAGGAUCACCCAUGUAGACUCCAUGACCGUAGUCGUGGAGUGUGUAGAAGGCCGCUAGAUCU [JL ENG2 3.73] (Eterna round: R96, puzzle: Exclusion NG 2)”, the “apparent KD of MS2 coat protein” value reads like this: (input ligand: FMN 200 uM) 15.2 nM; under setting [1], 9.33 nM; (input ligand: none) 12 nM.
Taken in the same sequence, the figures for “UGAUCUAGCGGAGGAUAUACAUGAGGAUCACCCAUGUAUAGGCUAUGACCGUAGUCGUGGCACAUGUAGAAGGCCGCUAGAUCU [JL ENG2 3.78] (Eterna round: R96, puzzle: Exclusion NG 2)” were 43.7 nM, 12.8 nM and 15.2 nM.
In the case of “UGAUCUAGCGGAGGAUAUACAUGAGGAUCACCCAUGUAUAGUCUAUGACCGUAGUCGUGGACCGUGUAGAAGGCCGCUAGAUCU [JL ENG2 3.77] (Eterna round: R96, puzzle: Exclusion NG 2)”, the “apparent KD of MS2 coat protein” value is 16.5 nM (input ligand: FMN 200 uM), 11.4 nM under setting [1] and 11 nM (input ligand: none).
In the case of “UGAUCUUGAGUCAGGAUAUGCUGGUUUUUUUUUUAGCAGAAGGGACAUGAGGAUCACCCAUGUUCUCACUUUUU [Magic-12] (puzzle: Brourd's mod of Exclusion 4)”, under setting [2], the “apparent KD of MS2 coat protein” value was found to be 16.8 nM.
Turning to “UGAUGCUCAGGAUAUACAUCAGUGUUCAGGCCAAAAGGCGGACAUGAGGAUCACCCAUGUAGAAGGGAGCGUUC [Eternabot (L1) Solution 13] (Eterna round: R97, puzzle: Exclusion 2)”, the “apparent KD of MS2 coat protein” value stood at 900 nM (input ligand: FMN 200 uM) and 380 nM (input ligand: none).
For the sequence “UGAUGUUGAUAGGAUAUACAGGUAGGAGUAGGAGUAGAAGGAUCUACAUGAGGAUCACCCAUGUAGGAGUGAGA [JR_E6_Sub001] (puzzle: Exclusion 6)”, the “apparent KD of MS2 coat protein” value (Eterna round: R95, input ligand: FMN 200 uM) worked out at 21.7 nM; the “apparent KD of MS2 coat protein” value under setting [2] is 12.5 nM; the “apparent KD of MS2 coat protein” value (Eterna round: R95, input ligand: none) turned out to be 16.4 nM.
Consider “UGAUUGUUUACCAGGUUAUACAUGAGGAUCACCCAUGUAGAUCCUACGUGCACGUUAUACCGCUCGUCUUAUUCCCA [Sensor-V1 #76] (Eterna round: R97, puzzle: Sensor, turn-off variant 1)”, for which the “apparent KD of MS2 coat protein” value runs as follows: (input ligand: FMN 200 uM) 21.4 nM; (input ligand: none) 20.7 nM.
On to “UGCAGACGAGGAUAUAAACGAUAUAACAUGAGGAUCACCCAUGUACGAUCGAUAGAUCGUUUAGAAGGCGUCUGCA [E5/9-A2] (Eterna round: R97, puzzle: Exclusion 5)”, for which the “apparent KD of MS2 coat protein” value by setting is: (input ligand: FMN 200 uM) 12.8 nM; (input ligand: none) 14.5 nM.
“UGCAGACGAGGAUAUAAACGAUAUAACAUGAGGAUCACCCAUGUACGAUCGAUAGAUCGUUUAGAAGGCGUCUGCU [E5/9-A3] (Eterna round: R97, puzzle: Exclusion 5)”: the “apparent KD of MS2 coat protein” value was 14.5 nM (input ligand: FMN 200 uM) and 14.1 nM (input ligand: none).
Taken in the same sequence, the figures for “UGCAGACGAGGAUAUAAAUUUGAUAACAUGAGGAUCACCCAUGUGAUCGAUAGAUCAAAUUUAGAAGGUGUCUGCA [E5/7-B2] (Eterna round: R97, puzzle: Exclusion 5)” were 443 nM and 576 nM.
